The source of these data is article doi:10.1101/2021.10.18.464377.

Assay [1] addresses Synaptotagmin 1 wild type expressed in HEK 293 cells (UniProt P21707). Description: immunostaining of cells or tissue.
Assay [2] concerns the target Synaptotagmin 2 wild type expressed in HEK 293 or PC12 cells (UniProt P29101). In words: immunostaining of cells or tissue.
UniProt P29101, sequence (P29101 whole entry): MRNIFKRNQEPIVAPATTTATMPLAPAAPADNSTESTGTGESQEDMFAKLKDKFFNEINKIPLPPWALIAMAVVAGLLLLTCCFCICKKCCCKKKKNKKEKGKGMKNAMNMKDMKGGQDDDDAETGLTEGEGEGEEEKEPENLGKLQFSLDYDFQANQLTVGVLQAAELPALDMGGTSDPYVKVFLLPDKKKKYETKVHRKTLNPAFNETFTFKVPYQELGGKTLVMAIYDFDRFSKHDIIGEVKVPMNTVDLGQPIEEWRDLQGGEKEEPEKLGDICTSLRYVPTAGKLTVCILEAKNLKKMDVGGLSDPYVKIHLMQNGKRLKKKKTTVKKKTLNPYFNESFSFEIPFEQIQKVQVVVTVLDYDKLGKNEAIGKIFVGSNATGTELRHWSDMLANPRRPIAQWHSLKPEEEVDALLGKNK

UniProt P21707, sequence (P21707 whole entry): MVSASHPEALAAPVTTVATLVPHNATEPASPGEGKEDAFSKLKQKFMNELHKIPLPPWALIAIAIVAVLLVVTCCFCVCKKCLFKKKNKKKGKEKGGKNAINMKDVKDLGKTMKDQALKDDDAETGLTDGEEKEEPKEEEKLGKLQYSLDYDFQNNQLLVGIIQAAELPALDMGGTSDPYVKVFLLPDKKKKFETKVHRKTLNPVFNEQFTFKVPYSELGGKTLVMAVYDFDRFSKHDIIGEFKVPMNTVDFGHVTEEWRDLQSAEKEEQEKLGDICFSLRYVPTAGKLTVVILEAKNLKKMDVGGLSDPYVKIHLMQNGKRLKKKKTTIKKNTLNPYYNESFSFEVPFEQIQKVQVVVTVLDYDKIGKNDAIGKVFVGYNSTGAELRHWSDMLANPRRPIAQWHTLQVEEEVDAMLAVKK

Consider “Botulinum neurotoxin serotype B (B1 Okra strain) with non-toxic accessory proteins (complex)”, for which the normalised BoNT/B immunoreactivity (IR, relative to WT) in assay [1] and in assay [2] was 1 throughout.
